The values below come from patent US20140120128A1.

Holding throughout (assay): cell-based or functional assay
In test [1] the target is human TLR2 expressed on HEK293 cells (human) (UniProt O60603).
Test [2] has as its target human TLR3 expressed on HEK293 cells (human) (UniProt O15455).
Test [3] has as its target human TLR4 (MD2-CD14) expressed on HEK293 cells (human) (UniProt O00206).
Test [4] concerns the target human TLR5 expressed on HEK293 cells (human) (UniProt O60602).
The target in test [5] is T1, human TLR7 expressed on HEK293 cells (human) (UniProt Q9NYK1).
T1 sequence: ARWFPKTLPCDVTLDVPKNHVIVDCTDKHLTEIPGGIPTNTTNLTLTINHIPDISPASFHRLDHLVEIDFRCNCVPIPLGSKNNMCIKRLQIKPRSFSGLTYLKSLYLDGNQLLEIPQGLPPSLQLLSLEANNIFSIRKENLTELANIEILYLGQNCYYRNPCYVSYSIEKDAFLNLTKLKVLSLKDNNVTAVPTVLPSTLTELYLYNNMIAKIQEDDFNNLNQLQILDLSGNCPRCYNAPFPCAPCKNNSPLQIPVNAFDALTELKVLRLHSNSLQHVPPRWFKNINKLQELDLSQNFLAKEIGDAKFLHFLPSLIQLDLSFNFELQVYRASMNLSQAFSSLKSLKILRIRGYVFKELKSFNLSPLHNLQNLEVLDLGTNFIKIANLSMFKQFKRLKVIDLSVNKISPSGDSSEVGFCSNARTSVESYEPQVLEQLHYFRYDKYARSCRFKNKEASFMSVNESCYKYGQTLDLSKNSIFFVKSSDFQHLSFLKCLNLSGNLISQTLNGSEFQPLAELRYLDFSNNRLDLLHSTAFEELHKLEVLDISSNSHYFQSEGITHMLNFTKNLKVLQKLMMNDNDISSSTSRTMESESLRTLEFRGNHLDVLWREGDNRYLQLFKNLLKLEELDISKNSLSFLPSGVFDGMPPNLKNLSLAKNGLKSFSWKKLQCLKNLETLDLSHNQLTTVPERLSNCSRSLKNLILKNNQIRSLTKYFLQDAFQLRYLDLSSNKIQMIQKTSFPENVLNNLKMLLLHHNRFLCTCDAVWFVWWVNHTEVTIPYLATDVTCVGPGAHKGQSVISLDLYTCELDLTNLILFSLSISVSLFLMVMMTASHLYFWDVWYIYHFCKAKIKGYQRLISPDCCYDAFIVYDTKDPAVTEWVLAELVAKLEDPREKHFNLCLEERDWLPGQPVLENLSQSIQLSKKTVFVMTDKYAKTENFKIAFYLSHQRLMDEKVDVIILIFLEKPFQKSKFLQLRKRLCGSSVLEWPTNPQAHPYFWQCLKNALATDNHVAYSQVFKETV

The target in test [6] is T2, human TLR8 expressed on HEK293 cells (human) (UniProt Q9NR97).
T2 sequence: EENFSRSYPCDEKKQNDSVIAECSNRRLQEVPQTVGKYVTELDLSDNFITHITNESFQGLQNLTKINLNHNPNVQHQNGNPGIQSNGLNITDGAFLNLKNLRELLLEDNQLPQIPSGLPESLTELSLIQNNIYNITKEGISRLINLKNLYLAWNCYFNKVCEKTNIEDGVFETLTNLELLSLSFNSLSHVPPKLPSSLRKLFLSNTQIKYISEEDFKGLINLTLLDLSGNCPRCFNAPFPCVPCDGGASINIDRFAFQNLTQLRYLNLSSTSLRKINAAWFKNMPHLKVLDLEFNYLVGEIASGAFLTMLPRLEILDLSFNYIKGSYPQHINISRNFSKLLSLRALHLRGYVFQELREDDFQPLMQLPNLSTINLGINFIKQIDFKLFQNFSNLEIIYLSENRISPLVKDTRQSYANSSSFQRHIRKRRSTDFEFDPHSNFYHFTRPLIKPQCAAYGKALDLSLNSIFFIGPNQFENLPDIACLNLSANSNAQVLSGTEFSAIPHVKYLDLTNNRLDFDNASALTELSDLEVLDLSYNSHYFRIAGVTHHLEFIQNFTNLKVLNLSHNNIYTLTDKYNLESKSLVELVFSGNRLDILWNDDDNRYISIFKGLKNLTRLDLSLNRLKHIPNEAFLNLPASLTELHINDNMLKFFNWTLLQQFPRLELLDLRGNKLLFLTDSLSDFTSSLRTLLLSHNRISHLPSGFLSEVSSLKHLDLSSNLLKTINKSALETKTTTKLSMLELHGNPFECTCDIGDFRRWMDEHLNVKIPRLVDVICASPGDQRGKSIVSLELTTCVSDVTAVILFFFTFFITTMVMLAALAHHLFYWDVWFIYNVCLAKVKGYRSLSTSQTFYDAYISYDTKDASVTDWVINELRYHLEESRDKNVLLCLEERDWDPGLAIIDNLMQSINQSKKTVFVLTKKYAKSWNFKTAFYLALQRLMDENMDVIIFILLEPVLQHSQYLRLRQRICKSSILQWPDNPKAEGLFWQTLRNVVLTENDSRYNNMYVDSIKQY

Test [7] has as its target T3, human TLR9 expressed on HEK293 cells (human) (UniProt Q9NR96).
T3 sequence: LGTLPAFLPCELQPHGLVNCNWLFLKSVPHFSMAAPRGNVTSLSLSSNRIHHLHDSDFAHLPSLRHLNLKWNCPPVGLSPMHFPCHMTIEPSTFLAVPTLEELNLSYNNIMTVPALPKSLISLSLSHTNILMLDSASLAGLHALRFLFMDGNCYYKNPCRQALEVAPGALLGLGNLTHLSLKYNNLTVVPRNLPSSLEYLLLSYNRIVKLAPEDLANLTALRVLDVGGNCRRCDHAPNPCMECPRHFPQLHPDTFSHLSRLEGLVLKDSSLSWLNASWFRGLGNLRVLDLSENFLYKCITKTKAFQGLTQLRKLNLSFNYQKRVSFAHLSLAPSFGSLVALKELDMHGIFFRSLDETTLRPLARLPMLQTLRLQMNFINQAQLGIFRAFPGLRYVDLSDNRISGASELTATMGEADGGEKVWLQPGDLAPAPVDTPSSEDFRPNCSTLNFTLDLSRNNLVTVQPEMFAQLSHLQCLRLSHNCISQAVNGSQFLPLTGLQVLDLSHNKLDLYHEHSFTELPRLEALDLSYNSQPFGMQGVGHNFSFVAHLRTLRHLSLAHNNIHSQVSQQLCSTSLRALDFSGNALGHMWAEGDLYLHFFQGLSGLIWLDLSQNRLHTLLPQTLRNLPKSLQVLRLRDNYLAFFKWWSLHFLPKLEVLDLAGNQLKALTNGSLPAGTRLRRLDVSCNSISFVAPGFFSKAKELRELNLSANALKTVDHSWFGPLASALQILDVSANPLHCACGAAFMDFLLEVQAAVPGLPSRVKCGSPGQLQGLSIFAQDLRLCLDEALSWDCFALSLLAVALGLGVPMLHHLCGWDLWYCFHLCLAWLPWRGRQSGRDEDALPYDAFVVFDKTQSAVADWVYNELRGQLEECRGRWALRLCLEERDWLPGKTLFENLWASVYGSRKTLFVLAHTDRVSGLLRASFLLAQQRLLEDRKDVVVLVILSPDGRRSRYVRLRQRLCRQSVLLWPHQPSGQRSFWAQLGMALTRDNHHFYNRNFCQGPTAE

human TLR2 expressed on HEK293 cells (human), sequence (O60603 21-784): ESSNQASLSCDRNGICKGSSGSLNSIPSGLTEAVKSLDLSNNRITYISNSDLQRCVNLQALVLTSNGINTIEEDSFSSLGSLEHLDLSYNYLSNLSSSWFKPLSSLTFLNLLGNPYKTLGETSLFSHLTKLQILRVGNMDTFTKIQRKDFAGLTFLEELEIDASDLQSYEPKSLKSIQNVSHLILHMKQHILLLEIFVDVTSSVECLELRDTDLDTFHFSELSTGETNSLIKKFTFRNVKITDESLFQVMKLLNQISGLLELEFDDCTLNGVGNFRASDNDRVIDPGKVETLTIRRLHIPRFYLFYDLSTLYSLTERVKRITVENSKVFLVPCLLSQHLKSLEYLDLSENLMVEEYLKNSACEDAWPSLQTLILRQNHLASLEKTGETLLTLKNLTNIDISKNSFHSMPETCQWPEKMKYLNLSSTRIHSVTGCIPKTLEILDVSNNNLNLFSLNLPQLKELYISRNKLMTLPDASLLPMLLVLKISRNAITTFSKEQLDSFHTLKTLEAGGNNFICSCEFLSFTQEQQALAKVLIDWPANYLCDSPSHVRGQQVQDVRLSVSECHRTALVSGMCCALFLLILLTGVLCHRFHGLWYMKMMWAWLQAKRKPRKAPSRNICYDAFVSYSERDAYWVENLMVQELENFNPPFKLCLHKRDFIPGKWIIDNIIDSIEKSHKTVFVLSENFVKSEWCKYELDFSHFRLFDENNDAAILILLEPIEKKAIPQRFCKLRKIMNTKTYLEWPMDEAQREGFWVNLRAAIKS
human TLR5 expressed on HEK293 cells (human), sequence (O60602 21-858): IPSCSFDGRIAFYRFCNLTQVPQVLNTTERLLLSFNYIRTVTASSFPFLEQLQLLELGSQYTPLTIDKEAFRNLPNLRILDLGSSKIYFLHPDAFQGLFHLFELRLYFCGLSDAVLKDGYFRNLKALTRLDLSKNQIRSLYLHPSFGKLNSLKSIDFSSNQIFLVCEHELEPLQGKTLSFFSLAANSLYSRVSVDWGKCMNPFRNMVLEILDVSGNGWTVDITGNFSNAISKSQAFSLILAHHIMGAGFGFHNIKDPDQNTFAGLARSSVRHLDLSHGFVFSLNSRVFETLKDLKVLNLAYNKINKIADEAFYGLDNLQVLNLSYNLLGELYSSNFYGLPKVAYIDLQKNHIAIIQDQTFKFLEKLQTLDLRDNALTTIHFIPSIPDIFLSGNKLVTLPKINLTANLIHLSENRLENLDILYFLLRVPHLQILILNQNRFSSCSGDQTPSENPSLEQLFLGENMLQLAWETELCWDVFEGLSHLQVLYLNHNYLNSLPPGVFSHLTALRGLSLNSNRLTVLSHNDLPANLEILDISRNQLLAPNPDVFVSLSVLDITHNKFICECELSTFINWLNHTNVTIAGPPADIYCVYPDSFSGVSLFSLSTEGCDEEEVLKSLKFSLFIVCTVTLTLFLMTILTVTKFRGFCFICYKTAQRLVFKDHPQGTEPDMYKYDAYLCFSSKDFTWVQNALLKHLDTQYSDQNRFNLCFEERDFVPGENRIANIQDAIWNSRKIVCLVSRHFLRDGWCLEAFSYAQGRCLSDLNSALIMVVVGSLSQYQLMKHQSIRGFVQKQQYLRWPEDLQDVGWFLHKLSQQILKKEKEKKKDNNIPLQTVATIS
human TLR4 (MD2-CD14) expressed on HEK293 cells (human), sequence (O00206 24-839 limits assumed, chain 1 of 3): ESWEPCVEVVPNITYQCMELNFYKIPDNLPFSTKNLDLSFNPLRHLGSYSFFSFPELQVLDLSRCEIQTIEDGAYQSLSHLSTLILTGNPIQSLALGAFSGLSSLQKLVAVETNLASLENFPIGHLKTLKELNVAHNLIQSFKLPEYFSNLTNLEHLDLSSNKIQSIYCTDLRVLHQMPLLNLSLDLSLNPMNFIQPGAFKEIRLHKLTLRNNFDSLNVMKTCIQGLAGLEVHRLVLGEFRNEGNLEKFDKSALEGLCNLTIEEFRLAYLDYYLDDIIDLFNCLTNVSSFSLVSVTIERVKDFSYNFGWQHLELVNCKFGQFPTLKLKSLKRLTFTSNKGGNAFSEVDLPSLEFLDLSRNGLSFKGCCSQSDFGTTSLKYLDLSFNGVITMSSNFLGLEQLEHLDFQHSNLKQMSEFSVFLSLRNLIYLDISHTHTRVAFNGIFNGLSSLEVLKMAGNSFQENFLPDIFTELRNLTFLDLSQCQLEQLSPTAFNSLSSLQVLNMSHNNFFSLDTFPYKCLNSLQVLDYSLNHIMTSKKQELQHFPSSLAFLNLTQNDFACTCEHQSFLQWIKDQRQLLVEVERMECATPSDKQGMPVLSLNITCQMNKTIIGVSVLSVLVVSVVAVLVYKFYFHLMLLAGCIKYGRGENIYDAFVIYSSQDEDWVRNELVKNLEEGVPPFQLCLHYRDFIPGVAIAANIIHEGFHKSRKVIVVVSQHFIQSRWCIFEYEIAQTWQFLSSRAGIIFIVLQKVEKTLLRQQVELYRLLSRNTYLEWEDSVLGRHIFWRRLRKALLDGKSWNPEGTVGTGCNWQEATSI
human TLR4 (MD2-CD14) expressed on HEK293 cells (human), sequence (Q9Y6Y9 19-160 limits assumed, chain 2 of 3, further chain): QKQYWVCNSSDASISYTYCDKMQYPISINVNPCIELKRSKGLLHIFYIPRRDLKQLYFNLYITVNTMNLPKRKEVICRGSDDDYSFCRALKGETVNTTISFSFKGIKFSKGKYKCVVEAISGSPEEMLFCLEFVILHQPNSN
human TLR4 (MD2-CD14) expressed on HEK293 cells (human), sequence (P08571 20-345 limits assumed, chain 3 of 3, further chain): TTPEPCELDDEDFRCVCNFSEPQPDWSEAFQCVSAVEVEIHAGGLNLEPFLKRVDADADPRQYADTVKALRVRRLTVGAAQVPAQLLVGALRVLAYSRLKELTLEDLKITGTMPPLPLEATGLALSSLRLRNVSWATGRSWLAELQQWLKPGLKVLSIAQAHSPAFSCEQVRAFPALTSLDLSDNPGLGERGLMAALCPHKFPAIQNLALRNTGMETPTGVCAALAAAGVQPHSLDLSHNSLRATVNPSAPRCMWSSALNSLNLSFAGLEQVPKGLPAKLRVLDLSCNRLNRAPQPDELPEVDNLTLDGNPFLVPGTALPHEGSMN

B1: truncated YscF (protein)
chain: LKKPADDANKAVNDSIAALKDKPDNPALLADLQHSINKWSVIYNINSTIVRSMKDLMQGILQKFP
In the case of B1, the SEAP reporter expression in HEK293 cells, screening 1 in test [1] amounted to 2.02; in test [2] it was 0.097; in test [3], 2; in test [4], 0.15; in test [5] it was 0.091; in test [6] it was 0.099. In test [7], this molecule showed an SEAP reporter expression in HEK293 cells, screening 1 of 0.079. The SEAP reporter expression in HEK293 cells, screening 2 was 1.98 in test [1]; 0.101 in test [2]; 1.9 in test [3]; 0.154 in test [4]; 0.097 in test [5]; 0.105 in test [6]. For the same molecule, the SEAP reporter expression in HEK293 cells, screening 2 in test [7] was found to be 0.079.
